{"source": "patent EP1313846B1", "molecular_target": "Savinase® (subtilisin 309) (UniProt P29600)", "sequence (P29600 whole entry)": "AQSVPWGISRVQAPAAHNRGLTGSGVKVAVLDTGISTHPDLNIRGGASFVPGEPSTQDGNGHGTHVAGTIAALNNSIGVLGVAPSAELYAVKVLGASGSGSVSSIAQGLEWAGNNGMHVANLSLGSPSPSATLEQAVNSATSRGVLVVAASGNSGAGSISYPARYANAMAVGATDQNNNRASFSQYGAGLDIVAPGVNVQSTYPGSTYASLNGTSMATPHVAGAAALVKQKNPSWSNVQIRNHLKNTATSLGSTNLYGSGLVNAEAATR", "experiment": "cell-based or functional assay"}
{"substance": "trypsin inhibitor type IV-0 (Ovo-inhibitor), Sigma T-1886 (from UniProt P10184 69-517)", "values": [{"measurement": "RA (%) (Residual Activity, Ovo-inhibition Assay; hydrolysis of Suc-Ala-Ala-Pro-Phe-pNA with and without inhibitor)", "result": "< 5", "unit": "%"}]}
